± gives the standard deviation of the averaged measurements.
Each sequence was assayed on Saccharomyces cerevisiae (assay: protein stability index of tFT-peptide fusion (C-terminal peptide) (PSI (0-1 scale)); higher = more stable (slower turnover)). Settings: genetic background: wild type; temperature: 30 C.
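Further: PSI is a weighted mean of sequencing reads over stability bins, variants kept only with over 10 reads, mCherry proximal and sfGFP distal, peptide attached via GGGS linker.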

Sequence | protein stability index
PFGDRSGLCVSV | 0.653 ± 0.017
PFIPLSMLSPLV | 0.68 ± 0.036
PFLEPPYPLLRS | 0.704 ± 0.17
PFLHPSSPPSPT | 0.698 ± 0.036
PFLLSPCSLSAS | 0.665 ± 0.026
PFPALQHAISRE | 0.699 ± 0.066
PFPLGPSLQTVI | 0.681 ± 0.028
PFPPLPPPPSPC | 0.71 ± 0.014
PFPPPPPPPRSP | 0.728 ± 0.047
PFPPPPTPTLSP | 0.755 ± 0.027
PFPPPRPPPAPP | 0.613 ± 0.023
PFPPRRLLSAPP | 0.671 ± 0.039
PFPRPVSPSPPP | 0.743 ± 0.037
PFPSFLPLLLPS | 0.702 ± 0.069
PFPSLLPALSSL | 0.678 ± 0.044
PFPSPAAPPPSL | 0.674 ± 0.01
PFPSPPSPPSPL | 0.817 ± 0.11
PFPSTIQSYSYS | 0.738 ± 0.07
PFRSFVFSLDPF | 0.725 ± 0.049
PFSASSILESVI | 0.719 ± 0.098
PFTTSSQPDSPI | 0.735 ± 0.065
PFVAFLPPLSPP | 0.702 ± 0.037
PFVSGFGRPGYC | 0.751 ± 0.039
PGDPRARPRLCP | 0.71 ± 0.033
PGLGVGATRCVH | 0.734 ± 0.018
PGLPCRNRMPFR | 0.687 ± 0.0078

Sequence | protein stability index
PGNAEQGIAVHL | 0.626 ± 0.055
PGNYVLSDPPLM | 0.715 ± 0.033
PGPATKAPLRTL | 0.671 ± 0.018
PGSILFRGVGAS | 0.691 ± 0.035
PGVAGSLSLLRR | 0.722 ± 0.097
PGVFEITPVMLI | 0.6949 ± 0.0055
PHAMNPNTSRVL | 0.682 ± 0.008
PHEKDKNMGKQK | 0.702 ± 0.085
PHLHHPPPPISA | 0.603 ± 0.027
PHPATSPVARPP | 0.678 ± 0.014
PHPDPDHCHAPP | 0.713 ± 0.1
PHPHLPPARSPP | 0.675 ± 0.019
PHPPPPHPPPPP | 0.644 ± 0.027
PHRPRDFALTPS | 0.6905 ± 0.0048
PHRSTRIDVDPC | 0.837 ± 0.12
PHRSVSRLTILS | 0.658 ± 0.012
PHSDGVRLAEGF | 0.713 ± 0.077
PHSTTGPPPPLT | 0.695 ± 0.041
PHSVPPLTFPTS | 0.689 ± 0.037
PHVGSGDGVMKA | 0.598 ± 0.038
PHYRYLHPSPPP | 0.704 ± 0.0073
PIELTLQRPPGV | 0.671 ± 0.031
PIGLTCPASSVL | 0.692 ± 0.046
PILFHIPHRHVP | 0.749 ± 0.25
PIPLPLSPPLPT | 0.73 ± 0.011
PIPPDGGSPPSP | 0.714

Sequence | protein stability index
PIPPDPPAYQGQ | 0.6426 ± 0.0064
PIPPPPPPPSSP | 0.699 ± 0.0086
PITKLHRHYARG | 0.6972 ± 0.0015
PIWWSRSALLAE | 0.671 ± 0.023
PKQMVVRRSRRP | 0.695 ± 0.07
PKVRAGYSYEVM | 0.673 ± 0.019
PKYKKKNNKKKT | 0.709 ± 0.058
PLAGLWPCRSGS | 0.669 ± 0.016
PLALRPPFSHGL | 0.698 ± 0.024
PLAPNYPANTGT | 0.69 ± 0.021
PLAPPTSASRFS | 0.6466 ± 0.0027
PLAPYPPLPPPP | 0.69 ± 0.027
PLCCHRSTGCTL | 0.676 ± 0.022
PLCPPPPYPPRS | 0.745 ± 0.043
PLFLSLPLSFPS | 0.697 ± 0.0058
PLGDIRPSPRDS | 0.681 ± 0.0086
PLILFLSLSRSV | 0.613 ± 0.066
PLILRSLFIFPV | 0.641 ± 0.037
PLLDPFFPLVFT | 0.58 ± 0.019
PLLLPPVPPFCF | 0.674 ± 0.12
PLLPPSDTCSLL | 0.718 ± 0.089
PLLPSLPPLLAP | 0.651 ± 0.05
PLLPSPLIPFSH | 0.688 ± 0.026
PLLPSPPHSPTP | 0.657 ± 0.045
PLLPSPPLPCFF | 0.765 ± 0.029
PLLQALLPPAPP | 0.632 ± 0.026

Sequence | protein stability index
PLLSPLPSHPHP | 0.815 ± 0.058
PLPAFPRLAIQP | 0.691 ± 0.021
PLPAISPPPTLP | 0.758 ± 0.036
PLPAPRHNALTT | 0.6137 ± 0.0045
PLPASFPPFPTL | 0.802 ± 0.036
PLPCPRGHDHPA | 0.688 ± 0.068
PLPCSSLLVPLP | 0.627 ± 0.058
PLPLASVTPPYL | 0.669 ± 0.0067
PLPLPLASSFPS | 0.627 ± 0.059
PLPLPPPPHPSL | 0.723 ± 0.041
PLPLPPPPPLPL | 0.657 ± 0.041
PLPLPPSPPFQF | 0.751 ± 0.011
PLPPFPPHNLRA | 0.733 ± 0.082
PLPPHRLPYPRL | 0.81 ± 0.025
PLPPLPPPFLPP | 0.641 ± 0.1
PLPPPAFPPLDP | 0.671 ± 0.021
PLPPPLLPPSSS | 0.7302 ± 0.0013
PLPPPLPPPSPP | 0.647 ± 0.033
PLPPPPALILFP | 0.6856 ± 0.003
PLPPPPIPLAPP | 0.708 ± 0.054
PLPPPPPLLPTC | 0.669 ± 0.037
PLPPPPPPPPLP | 0.767 ± 0.024
PLPPPPPPSFPP | 0.769 ± 0.057
PLPPPPTLSCTQ | 0.701 ± 0.11
PLPPPRPLPTPL | 0.69 ± 0.055
PLPPPSASPLPP | 0.539 ± 0.044

Sequence | protein stability index
PLPPPTSPPSPP | 0.749 ± 0.11
PLPPSLRPALSP | 0.7188 ± 0.00078
PLPPSPLPRPCP | 0.761 ± 0.054
PLPRPPRLVFSS | 0.5 ± 0.012
PLPRPPSPPPAP | 0.68 ± 0.12
PLPRPVLPPLFS | 0.739 ± 0.073
PLPSHPPRPLPP | 0.67 ± 0.05
PLPSPPSPPPPP | 0.693 ± 0.0091
PLPSQYANPMIL | 0.664 ± 0.0051
PLPSSRSPSPPS | 0.711 ± 0.038
PLPTSMNTHALV | 0.683 ± 0.079
PLQPPHSPPFPP | 0.7 ± 0.028
PLRFLLPLLLPF | 0.582 ± 0.0087
PLRGPPPPPLPI | 0.677 ± 0.07
PLSLIRFSAFQS | 0.486 ± 0.036
PLSLPAPPPRPR | 0.654 ± 0.017
PLSLPPPPPSLP | 0.723 ± 0.022
PLSLPPRPFLHH | 0.735 ± 0.017
PLSLSSPPLFLL | 0.639 ± 0.0006
PLSPLHHCPLSP | 0.666 ± 0.039
PLSPLPPSPGPS | 0.766 ± 0.051
PLSPPLLPPPPP | 0.688 ± 0.014
PLSPPLLPPTTL | 0.706 ± 0.086
PLSPPLPRPPPL | 0.649 ± 0.11
PLSPPPVNIPPT | 0.733 ± 0.039
PLSPSFPPLSPP | 0.78 ± 0.12

Sequence | protein stability index
PLSRVEGRVPAI | 0.6663 ± 0.0039
PLSSPFPPSHPL | 0.763 ± 0.029
PLSVPHQPLCPV | 0.686 ± 0.028
PLSVPPMSSLLP | 0.7202 ± 0.0068
PLTFARLPPPTL | 0.678 ± 0.021
PLTSIDTDPPHI | 0.723 ± 0.022
PLWRPLALSHVS | 0.67 ± 0.012
PLYRPCPGSRRA | 0.745 ± 0.0097
PMIENQQIDKTN | 0.649 ± 0.0095
PMMTKDEFNNRM | 0.702 ± 0.015
PMRAALIIFLVR | 0.5 ± 0.1
PMVETKVGGIAN | 0.705 ± 0.043
PMYKYKTSQKDL | 0.6567 ± 0.0057
PNFSLPSLPHFP | 0.747 ± 0.017
PNPPPPRPTPTP | 0.6688 ± 0.0049
PNVHMRVFELFM | 0.72 ± 0.054
PPALLRLTSSAR | 0.702 ± 0.026
PPALPPVPPYPL | 0.673 ± 0.073
PPAPARFPFLPA | 0.6696 ± 0.001
PPAPPEPRIVRR | 0.684 ± 0.076
PPAPPFPAPPPR | 0.628 ± 0.028
PPAPPHHPPPSS | 0.679 ± 0.036
PPAPPPLPLPLF | 0.72 ± 0.0079
PPARPDCGIRTP | 0.672 ± 0.026
PPASLFFPPLSP | 0.756 ± 0.13
PPASRPPPPTFL | 0.699 ± 0.047

Sequence | protein stability index
PPCPGPLPPPPP | 0.6663 ± 0.0025
PPCPSSPHARPA | 0.69824 ± 0.00052
PPCRRGRTHGVY | 0.685 ± 0.024
PPDLPVPRPSFR | 0.571
PPDPPLHPPPSS | 0.733 ± 0.13
PPEPVRHTSGLS | 0.807 ± 0.059
PPFLDLSLPHIC | 0.589 ± 0.016
PPFPPPPRPADH | 0.741 ± 0.023
PPFTPLPPSVPP | 0.686 ± 0.03
PPFTPLSCLPPP | 0.708 ± 0.038
PPGAPPYPSPPP | 0.569 ± 0.092
PPGCPCPASTGS | 0.6916 ± 0.004
PPGPGRAPVRPA | 0.623 ± 0.033
PPGPLPTPPYPP | 0.545 ± 0.035
PPGPPLPRPRRP | 0.694 ± 0.043
PPGQPPARSSPV | 0.706 ± 0.013
PPGYPLCLPLGF | 0.7018 ± 0.0035
PPHAPLPPPLAL | 0.7219 ± 0.0072
PPHAPPPPPHVP | 0.713 ± 0.039
PPHLIPTLLSPP | 0.721 ± 0.02
PPHLPPPRPKPP | 0.592 ± 0.028
PPHQPRTPNSPP | 0.68 ± 0.034
PPHRPPTRPRPR | 0.64 ± 0.0094
PPHSSPPPPPPS | 0.715 ± 0.028
PPHSTPPTGRPG | 0.753 ± 0.014
PPIALTPRTPAP | 0.747 ± 0.097

Sequence | protein stability index
PPILHPPPDIPG | 0.701 ± 0.042
PPISVIRKPTVL | 0.667 ± 0.066
PPLARLASPSRL | 0.7006 ± 0.0036
PPLARPPLPAPF | 0.6998 ± 0.0022
PPLGITHPSFPS | 0.787 ± 0.025
PPLGMPLYHPRP | 0.7426 ± 0.0021
PPLGPTSARALA | 0.619 ± 0.014
PPLLDLATYSSS | 0.697 ± 0.061
PPLLPPLPFPPP | 0.74 ± 0.076
PPLLTPPSTLFS | 0.661 ± 0.022
PPLPFSRSPSSL | 0.69 ± 0.019
PPLPLPLPPPTP | 0.767 ± 0.088
PPLPPLPLAPPY | 0.6927 ± 0.005
PPLPPLPPLSVS | 0.675 ± 0.029
PPLPPPPASPPP | 0.589 ± 0.045
PPLPPPPPLLPP | 0.6764 ± 0.0065
PPLPPPSSPLFP | 0.714 ± 0.087
PPLPPRPTPPPR | 0.711 ± 0.04
PPLPSPPPPSSP | 0.7157 ± 0.0022
PPLRFLSVSSSP | 0.6741 ± 0.003
